Paper PMC2386557, “Varicellovirus UL49.5 Proteins Differentially Affect the Function of the Transporter Associated with Antigen Processing, TAP” (PLoS Pathogens, 2008)
Where no end group is shown, it is not given here. The star is where a group is joined. 125I = [125I]*

Legend:
Conditions in all cases: one partner purified
[1] = target: T1, TAP complex of MJS TAP1-GFP cells (TAP1-GFP with TAP2) ( | human (endogenous in MJS), UniProt Q03518;Q03519); assay: radioligand binding
T1 construct: also called GFP-tagged TAP
T1 sequence 1: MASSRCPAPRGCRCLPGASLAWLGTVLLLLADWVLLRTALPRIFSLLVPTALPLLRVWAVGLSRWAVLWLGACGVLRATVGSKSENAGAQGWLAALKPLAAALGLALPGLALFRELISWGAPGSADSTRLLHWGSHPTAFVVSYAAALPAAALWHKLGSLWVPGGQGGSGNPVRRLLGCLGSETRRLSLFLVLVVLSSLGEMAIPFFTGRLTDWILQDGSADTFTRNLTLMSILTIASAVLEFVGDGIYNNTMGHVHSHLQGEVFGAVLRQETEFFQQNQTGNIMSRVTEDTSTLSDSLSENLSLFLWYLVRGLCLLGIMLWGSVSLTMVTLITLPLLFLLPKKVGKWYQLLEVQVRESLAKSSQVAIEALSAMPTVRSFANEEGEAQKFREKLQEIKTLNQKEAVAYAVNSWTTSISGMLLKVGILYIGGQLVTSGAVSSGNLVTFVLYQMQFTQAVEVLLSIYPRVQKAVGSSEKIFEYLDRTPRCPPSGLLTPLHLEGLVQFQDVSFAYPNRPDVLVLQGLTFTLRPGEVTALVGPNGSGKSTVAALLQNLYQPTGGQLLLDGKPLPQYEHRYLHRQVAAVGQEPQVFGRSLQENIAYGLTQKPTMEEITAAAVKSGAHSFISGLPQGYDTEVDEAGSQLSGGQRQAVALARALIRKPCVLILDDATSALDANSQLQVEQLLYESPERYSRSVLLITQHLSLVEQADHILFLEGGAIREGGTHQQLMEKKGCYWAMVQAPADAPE
T1 sequence 2: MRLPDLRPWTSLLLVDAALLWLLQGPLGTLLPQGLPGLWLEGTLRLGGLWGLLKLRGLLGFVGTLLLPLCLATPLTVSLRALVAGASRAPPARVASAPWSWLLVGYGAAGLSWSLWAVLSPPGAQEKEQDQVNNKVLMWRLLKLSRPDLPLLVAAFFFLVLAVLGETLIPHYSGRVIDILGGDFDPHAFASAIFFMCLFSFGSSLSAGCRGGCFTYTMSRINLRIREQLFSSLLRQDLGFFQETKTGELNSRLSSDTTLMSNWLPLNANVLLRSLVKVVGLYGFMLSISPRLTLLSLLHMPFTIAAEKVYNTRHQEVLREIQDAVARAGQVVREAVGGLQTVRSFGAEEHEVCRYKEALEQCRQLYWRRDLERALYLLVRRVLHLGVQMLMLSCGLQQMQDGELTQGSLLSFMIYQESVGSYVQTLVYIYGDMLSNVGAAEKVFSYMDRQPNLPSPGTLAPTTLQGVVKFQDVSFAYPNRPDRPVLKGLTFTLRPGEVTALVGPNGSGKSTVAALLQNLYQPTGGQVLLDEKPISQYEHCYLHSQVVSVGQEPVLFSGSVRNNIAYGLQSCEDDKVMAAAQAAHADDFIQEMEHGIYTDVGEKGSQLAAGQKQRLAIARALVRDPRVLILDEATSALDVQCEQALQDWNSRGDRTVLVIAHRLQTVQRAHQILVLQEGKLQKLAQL

[2] = target: T1, TAP complex of MJS TAP1-GFP cells …; assay: radioligand binding; as a2, but microsomes of MJS TAP1-GFP cells that express EHV-1 UL49.5
[3] = target: T1, TAP complex of MJS TAP1-GFP cells …; assay: radioligand binding; microsomes of control MJS TAP1-GFP cells incubated on ice with increasing concentrations of RR[125I]YQKSTEL in AP buffer (5 mM MgCl2 in PBS, pH 7.0); corrected for the signal with 200-fold excess of ICP47; triplicate

B1: radiolabeled reporter peptide RR[125I]YQKSTEL (peptide)
peptide: RRY(125I)QKSTEL
notes: also called ^125I-labeled reporter peptide; radiolabeled peptide
- Kd [1]: 0.351 ± 0.042 µM
- Kd [2]: 0.236 ± 0.071 µM
- Kd [3]: 0.277 ± 0.058 µM
